Reference: patent publication CN114480298A (MEGEE TRANSF MEDICAL RESEARCH SUZHOU CO LTD, dated 2022)

Key:
[1] = biological target: T1, 人TIGIT (人体组织细胞膜上表达的TIGIT蛋白) (human, UniProt Q495A1 22-244); test: immunohistochemistry on FFPE human tissue, primary antibody 3.5 μg/mL
T1 construct: whole, on cells
T1 sequence (looked up): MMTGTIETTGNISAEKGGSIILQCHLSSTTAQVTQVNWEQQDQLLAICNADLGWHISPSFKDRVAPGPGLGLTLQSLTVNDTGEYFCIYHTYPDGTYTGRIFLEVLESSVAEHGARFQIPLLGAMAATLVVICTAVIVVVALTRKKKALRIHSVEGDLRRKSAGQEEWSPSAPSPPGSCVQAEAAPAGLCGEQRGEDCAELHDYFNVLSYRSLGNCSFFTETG

[2] = biological target: T2, TF-TIGIT融合蛋白 (原核表达) (human (TIGIT part)); test: Western blot, 0.2 μg antigen per lane, primary antibody 0.2 µg/mL
T2 construct: also called TF-TIGIT蛋白; 原核表达的TF-TIGIT蛋白
T2 chain: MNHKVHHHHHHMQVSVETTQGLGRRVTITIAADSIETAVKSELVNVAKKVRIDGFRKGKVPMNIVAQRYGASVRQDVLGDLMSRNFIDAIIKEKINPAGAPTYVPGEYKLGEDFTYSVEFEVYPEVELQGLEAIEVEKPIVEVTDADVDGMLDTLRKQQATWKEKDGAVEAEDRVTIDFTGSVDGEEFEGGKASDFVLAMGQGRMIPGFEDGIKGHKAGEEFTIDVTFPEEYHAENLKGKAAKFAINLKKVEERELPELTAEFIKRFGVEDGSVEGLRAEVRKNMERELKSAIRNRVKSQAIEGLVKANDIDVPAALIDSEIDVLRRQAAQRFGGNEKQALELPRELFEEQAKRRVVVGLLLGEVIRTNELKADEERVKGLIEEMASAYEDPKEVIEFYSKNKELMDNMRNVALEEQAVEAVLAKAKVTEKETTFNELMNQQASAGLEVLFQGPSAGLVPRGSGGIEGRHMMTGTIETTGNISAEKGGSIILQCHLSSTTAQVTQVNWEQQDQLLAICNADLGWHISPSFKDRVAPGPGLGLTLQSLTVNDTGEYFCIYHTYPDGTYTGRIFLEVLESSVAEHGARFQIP

B1: 抗TIGIT单克隆抗体MJ12-30 (antibody, mouse IgG1, kappa, V domains shown)
VH: EVKLEQSGGVLVQPGGSRKLSCAASGFTFHSFGMHWVRQAPEKGLEWVAYISSGGSTIFYADTVKGRFTISRDNPKNTLFLQMTSLRSEDTAMYYCAGSDHGNLGYWGQGTTLTVSS
VL: DIVLTQSPLSLSVSLGDQASISCRSSQSILHSGGNTYLDWFLQRPGQSPKLLIYKVSNRISGVPDRFSGSGAGTDFTLKISRVEAEDLGVYYCFQGNHVPPTFGGGTKLEIKR
notes: full chains used here; also called 鼠抗人TIGIT单克隆抗体杂交瘤细胞系MJ12-30 (CGMCC No.45102) 分泌的抗体
binding result [1]: binds | binding result [2]: binds
